Paper PMC5311487

T1: MEC-8 RRM1 (Caenorhabditis elegans, UniProt G5ECJ4 28-123, C54A;C102A)
T1 sequence: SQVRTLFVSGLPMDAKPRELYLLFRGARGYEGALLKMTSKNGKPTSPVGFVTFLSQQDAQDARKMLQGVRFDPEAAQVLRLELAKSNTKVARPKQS


Target: T1, MEC-8 RRM1
Assay: ITC

Binder	Kd [nM]
AGCACAUUUUAGCACA (ssRNA) [6-nt spacer]	330 ± 10
AUCACA (ssRNA) [6-mer (G2U)]	20400 ± 800
AGCACAUUUUUUUUUUUUAGCACA (ssRNA) [14-nt spacer]	110 ± 70
AGCACAUUAGCACA (ssRNA) [4-nt spacer]	380 ± 90
AGCACAUUUUUUAGCACA (ssRNA) [8-nt spacer]	180 ± 40
AGCACAUUUUUUUUAGCAUA (ssRNA) [10-nt spacer (WT/C19U)]	450 ± 30
AGCACAUUUU (ssRNA) [6-mer + 4U]	1750 ± 30
AUCACAUUUUUUUUAUCACA (ssRNA) [10-nt spacer (G2U/G16U)]	1290 ± 40
AGCACAUUUUUUUUAGCACA (ssRNA) [10-nt spacer]	150 ± 40
ACCACAUUUUUUUUACCACA (ssRNA) [10-nt spacer (G2C/G16C)]	1560 ± 10
AGCACAUUUUUUUUAUCACA (ssRNA) [10-nt spacer (WT/G16U)]	260 ± 80
AGCACAUUUUUUUUUUAGCACA (ssRNA) [12-nt spacer]	80 ± 20
AAUCCAUUGCACUCCGGAUUU (structured_RNA) [U1A stem-loop]	240 ± 20

Target: T1, MEC-8 RRM1
Assay: ITC
Remark: another data set of the same source

Binder	Kd [nM]
AACACAUUUUUUUUAACACA (ssRNA) [10-nt spacer (G2A/G16A)]	900 ± 100
